Source: patent US20260000736A1, “PURIFIED LACTOFERRIN COMPOSITIONS AND METHODS OF USE” (Lactea Therapeutics LLC, priority 2023, published 2026)
“Also recorded” adds a separate entry of the source.

Key:
lactoperoxidase (LPO) = experiment: Enzymatic colorimetric assay for lactoperoxidase (LPO) activity; type: biochemical; settings: colorimetric peroxidase substrate
Source text: An enzymatic assay for lactoperoxidase (LPO) activity was developed utilizing a molecule which in the presence of peroxidase activity turns a blue color.

[1] = DSC of additional batches, ratio of apo to holo-Lactoferrin; type: physicochemical; settings: 5 mg/mL, 30° C. to 100° C. range
Protocol: Additional batches of Lactea-Lf as described in the above examples and the relative ratio of apo to holo-Lactoferrin was assessed by Differential Scanning Calorimetry (DSC). Lactoferrin samples were loaded at 5 mg/mL into a NanoDSC (TI Instruments) and measured in the 30° C. to 100° C. range. […] It is likely that these peaks are smaller as the sample is highly impure or contains already denatured product.

E. coli 0157 [2] = experiment: Biofilm formation, crystal violet assay; type: cell-based; settings: for Biofilm Inhibition, Replicate 1 / Biofilm Inhibition, Replicate 2 / Biofilm Inhibition, Replicate 3: 24 hours
Protocol: Lactoferrin was assessed for biofilm growth inhibition. To study the relative concentration dependent efficacy of Lactea-Lf and the Sigma Aldrich research standard Lactoferrin in inhibiting biofilm formation, Lf was added at concentrations ranging from 2 mg/mL to 0.31 mg/mL (2-fold serial dilution curve) to E. coli 0157 in LB seeded at 10∝CFU/mL and incubated for 37° C. for 24 hours. Lactea Lactoferrin (Lactea-Lf) was produced as described in the above examples. The biofilm was stained using a standard crystal violet assay. A quantification of the inhibition of biofilm formation (FIG. 18A) and an image of a representative plate (FIG. 18B) are shown.

E. coli 0157 [3] = experiment: Bacterial growth inhibition, OD600 after 16 h; type: cell-based; settings: 1 mg/mL Lf, 16 h at 37° C.
Protocol: As an analytical standard for the assessment of Lactoferrin (Lf) activity, 1 mg/mL Lf was added to 10∝CFU/mL E. coli 0157 in LB and incubated for 16 h at 37° C. Lactea Lactoferrin (Lactea-Lf) was produced as described in the above examples. Assessed were three independent lots of Lactea-Lf, impure samples which were generated by co-eluting Lactoperoxidase and Lactoferrin (co-elution), samples with degradation products generated by eluting Lactoferrin from old milk which was left for three days (Degradation Products), and a Sigma Aldrich Lactoferrin L9507 (Research Standard). As shown in FIG. 16 and quantified in Table 5, in the Lactea-Lf lots assessed, less than 5% the total growth of bacteria was observed as assessed by OD600 relative to the growth of untreated bacteria under these conditions. In this case, co-elution samples were samples which have a detectable peak of LPO as observable in MALDI-TOF M/S or HPLC. Degradation Products had identifiable degradation peaks as observed in HPLC or DSC.

E. coli 0157 [4] = experiment: Bacterial growth timecourse, OD600; type: cell-based; settings: 1 mg/mL; for Bacterial Growth Timecourse, Replicate 1 / Bacterial Growth Timecourse, Replicate 2 / Bacterial Growth Timecourse, Replicate 3: OD600 relative to no treatment control at 24 hours
Protocol: For a more detailed comparison of Lactea-Lf antimicrobial activity relative to the Sigma Aldrich Lactoferrin, Lactea-Lf and Sigma Aldrich Lactoferrin were incubated at 1 mg/mL with for E. coli 0157 in LB seeded at 10∝CFU/mL. […] Results were quantified and reported as a percent of the OD600 of the no treatment control at 24 hours for all timepoints.

[5] = 10∝CFU/mL E. coli 0157 in LB, OD600 relative to untreated

B1: Sigma-Lf: Sigma Aldrich Lactoferrin L9507 (Research Standard) (protein, UniProt P24627 20-708, looked up)
Lactotransferrin: APRKNVRWCTISQPEWFKCRRWQWRMKKLGAPSITCVRRAFALECIRAIAEKKADAVTLDGGMVFEAGRDPYKLRPVAAEIYGTKESPQTHYYAVAVVKKGSNFQLDQLQGRKSCHTGLGRSAGWIIPMGILRPYLSWTESLEPLQGAVAKFFSASCVPCIDRQAYPNLCQLCKGEGENQCACSSREPYFGYSGAFKCLQDGAGDVAFVKETTVFENLPEKADRDQYELLCLNNSRAPVDAFKECHLAQVPSHAVVARSVDGKEDLIWKLLSKAQEKFGKNKSRSFQLFGSPPGQRDLLFKDSALGFLRIPSKVDSALYLGSRYLTTLKNLRETAEEVKARYTRVVWCAVGPEEQKKCQQWSQQSGQNVTCATASTTDDCIVLVLKGEADALNLDGGYIYTAGKCGLVPVLAENRKSSKHSSLDCVLRPTEGYLAVAVVKKANEGLTWNSLKDKKSCHTAVDRTAGWNIPMGLIVNQTGSCAFDEFFSQSCAPGADPKSRLCALCAGDDQGLDKCVPNSKEKYYGYTGAFRCLAEDVGDVAFVKNDTVWENTNGESTADWAKNLNREDFRLLCLDGTRKPVTEAQSCHLAVAPNHAVVSRSDRAAHVKQVLLHQQALFGKNGKNCPDKFCLFKSETKNLLFNDNTECLAKLGGRPTYEEYLGTEYVTAIANLKKCSTSPLLEACAFLTR
Lactoperoxidase (LPO)
  LPO enzymatic activity (blue color reaction): does not result in a positive enzymatic reaction
[1]
  relative ratio of apo to holo-Lactoferrin, DSC peak pattern: one lot was almost entirely holo-Lf and had two peaks in the holo-Lf range; also recorded: two faint peaks with slightly more holo-Lf than apo-Lf
E. coli 0157 [2]; E. coli 0157, 24 hours
  inhibition of biofilm formation, in words: only appears to demonstrate inhibition of biofilm in the low mg/mL range, but never completely eliminates biofilm formation
E. coli 0157 [2]; [Lf] 0.031 mg/mL
  Biofilm Inhibition, Replicate 1: 0.6588
  Biofilm Inhibition, Replicate 2: 0.9283
  Biofilm Inhibition, Replicate 3: 0.854
E. coli 0157 [2]; [Lf] 0.063 mg/mL
  Biofilm Inhibition, Replicate 1: 0.2439
  Biofilm Inhibition, Replicate 2: 0.1943
  Biofilm Inhibition, Replicate 3: 0.3058
E. coli 0157 [2]; [Lf] 0.125 mg/mL
  Biofilm Inhibition, Replicate 1: 0.1583
  Biofilm Inhibition, Replicate 2: 0.1464
  Biofilm Inhibition, Replicate 3: 0.5378
E. coli 0157 [2]; [Lf] 0.25 mg/mL
  Biofilm Inhibition, Replicate 1: 0.1929
  Biofilm Inhibition, Replicate 2: 0.2837
  Biofilm Inhibition, Replicate 3: 0.358
E. coli 0157 [2]; [Lf] 0.5 mg/mL
  Biofilm Inhibition, Replicate 1: 0.126
  Biofilm Inhibition, Replicate 2: 0.192
  Biofilm Inhibition, Replicate 3: 0.1942
E. coli 0157 [2]; [Lf] 1 mg/mL
  Biofilm Inhibition, Replicate 1: 0.05367
  Biofilm Inhibition, Replicate 2: 0.09846
  Biofilm Inhibition, Replicate 3: 0.1465
E. coli 0157 [2]; [Lf] 2 mg/mL
  Biofilm Inhibition, Replicate 1: 0.09652
  Biofilm Inhibition, Replicate 2: 0.03678
  Biofilm Inhibition, Replicate 3: 0.08427
E. coli 0157 [3]; [5]
  Relative Bacterial Growth, Replicate 1: 0.8089
  Relative Bacterial Growth, Replicate 2: 0.8162
  Relative Bacterial Growth, Replicate 3: 0.7726
E. coli 0157 [3]
  antibacterial activity compared with other samples: less activity than any lot of co-elution or degraded product
E. coli 0157 [4]; E. coli 0157 in LB
  time at which bacterial growth became observable / evident: 6 h
E. coli 0157 [4]; 3 h
  Bacterial Growth Timecourse, Replicate 1: 0.04197
  Bacterial Growth Timecourse, Replicate 2: 0.0345
  Bacterial Growth Timecourse, Replicate 3: 0.04414
E. coli 0157 [4]; 6 h
  Bacterial Growth Timecourse, Replicate 1: 0.6058
  Bacterial Growth Timecourse, Replicate 2: 0.6264
  Bacterial Growth Timecourse, Replicate 3: 0.6363
E. coli 0157 [4]; 9 h
  Bacterial Growth Timecourse, Replicate 1: 0.6012
  Bacterial Growth Timecourse, Replicate 2: 0.6124
  Bacterial Growth Timecourse, Replicate 3: 0.6341
E. coli 0157 [4]; 12 h
  Bacterial Growth Timecourse, Replicate 1: 0.6658
  Bacterial Growth Timecourse, Replicate 2: 0.6702
  Bacterial Growth Timecourse, Replicate 3: 0.6326
E. coli 0157 [4]; 15 h
  Bacterial Growth Timecourse, Replicate 1: 0.6543
  Bacterial Growth Timecourse, Replicate 2: 0.6602
  Bacterial Growth Timecourse, Replicate 3: 0.6251
E. coli 0157 [4]; 18 h
  Bacterial Growth Timecourse, Replicate 1: 0.6295
  Bacterial Growth Timecourse, Replicate 2: 0.6201
  Bacterial Growth Timecourse, Replicate 3: 0.599
E. coli 0157 [4]; 21 h
  Bacterial Growth Timecourse, Replicate 1: 0.6512
  Bacterial Growth Timecourse, Replicate 2: 0.5981
  Bacterial Growth Timecourse, Replicate 3: 0.5984
E. coli 0157 [4]; 24 h
  Bacterial Growth Timecourse, Replicate 1: 0.6668
  Bacterial Growth Timecourse, Replicate 2: 0.6205
  Bacterial Growth Timecourse, Replicate 3: 0.6407
